Test results from publication PMC3098719 (Molecular cell, 2008).

Experiments:
[1] = molecular target: Kae1 (M. jannaschii Kae1, residues 1-328 of MJ1130) (Methanocaldococcus jannaschii, UniProt Q58530); test: ATP-binding assay
[2] = molecular target: T1, GST-Kae1 T88R/T92R (M. jannaschii) (Methanococcus jannaschii, UniProt Q58530 1-328, T88R | T92R); test: pull-down
T1 sequence (looked up): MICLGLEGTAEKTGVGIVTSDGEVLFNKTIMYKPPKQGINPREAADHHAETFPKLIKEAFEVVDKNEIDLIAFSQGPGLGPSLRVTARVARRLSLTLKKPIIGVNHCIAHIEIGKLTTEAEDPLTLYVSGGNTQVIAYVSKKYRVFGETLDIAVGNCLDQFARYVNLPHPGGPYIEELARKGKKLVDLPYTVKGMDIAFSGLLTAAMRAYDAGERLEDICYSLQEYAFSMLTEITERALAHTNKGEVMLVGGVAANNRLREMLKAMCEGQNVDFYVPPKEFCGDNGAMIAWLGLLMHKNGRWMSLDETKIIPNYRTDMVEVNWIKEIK

[3] = molecular target: T2, GST-Kae1 T88R (M. jannaschii) (Methanococcus jannaschii, UniProt Q58530 1-328, T88R); test: pull-down
T2 sequence (looked up): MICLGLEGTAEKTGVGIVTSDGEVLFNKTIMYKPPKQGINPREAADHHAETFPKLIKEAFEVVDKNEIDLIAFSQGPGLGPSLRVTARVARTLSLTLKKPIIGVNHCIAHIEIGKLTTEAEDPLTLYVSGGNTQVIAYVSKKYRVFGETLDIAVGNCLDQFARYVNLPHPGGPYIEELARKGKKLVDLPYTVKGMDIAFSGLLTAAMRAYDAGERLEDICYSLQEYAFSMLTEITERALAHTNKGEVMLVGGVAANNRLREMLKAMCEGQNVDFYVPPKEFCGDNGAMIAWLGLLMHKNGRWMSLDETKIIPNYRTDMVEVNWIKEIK

[4] = molecular target: T3, GST-Kae1 (residues 1-328 of Methanococcus jannaschii MJ1130) (Methanococcus jannaschii, UniProt Q58530 1-328); test: pull-down
T3 sequence (looked up): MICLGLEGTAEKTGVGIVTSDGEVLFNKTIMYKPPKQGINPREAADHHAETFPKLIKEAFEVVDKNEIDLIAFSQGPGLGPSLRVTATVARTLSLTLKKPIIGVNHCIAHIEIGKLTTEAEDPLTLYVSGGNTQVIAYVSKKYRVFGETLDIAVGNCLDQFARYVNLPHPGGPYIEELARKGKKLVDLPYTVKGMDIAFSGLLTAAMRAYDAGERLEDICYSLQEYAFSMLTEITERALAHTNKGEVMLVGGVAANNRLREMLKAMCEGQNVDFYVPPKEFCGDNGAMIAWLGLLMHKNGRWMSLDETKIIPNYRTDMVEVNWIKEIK

[5] = molecular target: T4, GST-Kae1 T88R/R91E (M. jannaschii) (Methanococcus jannaschii, UniProt Q58530 1-328, T88R | R91E); test: pull-down
T4 sequence (looked up): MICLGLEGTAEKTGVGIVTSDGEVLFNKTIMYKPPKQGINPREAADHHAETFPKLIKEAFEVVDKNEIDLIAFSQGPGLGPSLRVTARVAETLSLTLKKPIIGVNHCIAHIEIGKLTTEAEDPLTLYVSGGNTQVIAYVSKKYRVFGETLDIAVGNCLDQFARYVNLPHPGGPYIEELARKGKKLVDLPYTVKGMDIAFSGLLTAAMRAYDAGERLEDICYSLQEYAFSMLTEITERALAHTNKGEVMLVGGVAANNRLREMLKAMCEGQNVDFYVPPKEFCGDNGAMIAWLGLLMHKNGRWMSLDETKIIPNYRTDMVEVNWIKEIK

Nc1ncnc2c1ncn2[C@@H]1O[C@H](COP(=O)(O)OP(=O)(O)OP(=O)(O)O)[C@@H](O)[C@H]1O [ATP] showed a Kd [1] of 27 µM.

B1: Bud32 (residues 328-535 of Methanococcus jannaschii MJ1130), untagged (domain or fragment, UniProt Q58530 328-535, looked up)
chain: KGKKRKIPEHLIGKGAEADIKRDSYLDFDVIIKERVKKGYRDERLDENIRKSRTAREARYLALVKDFGIPAPYIFDVDLDNKRIMMSYINGKLAKDVIEDNLDIAYKIGEIVGKLHKNDVIHNDLTTSNFIFDKDLYIIDFGLGKISNLDEDKAVDLIVFKKAVLSTHHEKFDEIWERFLEGYKSVYDRWEIILELMKDVERRARYVE
B1: binds [2]; binds [3]; binds [4]. B1: binds [5].
